Read-outs that look alike come from different tables or passages of the source.
T1: mouse intermediate-affinity IL-2R (IL-2Rβ + IL-2Rγ) on murine splenocytes (CD8+ T cells and NK cells) (mouse) (UniProt P16297)
T1 sequence 1: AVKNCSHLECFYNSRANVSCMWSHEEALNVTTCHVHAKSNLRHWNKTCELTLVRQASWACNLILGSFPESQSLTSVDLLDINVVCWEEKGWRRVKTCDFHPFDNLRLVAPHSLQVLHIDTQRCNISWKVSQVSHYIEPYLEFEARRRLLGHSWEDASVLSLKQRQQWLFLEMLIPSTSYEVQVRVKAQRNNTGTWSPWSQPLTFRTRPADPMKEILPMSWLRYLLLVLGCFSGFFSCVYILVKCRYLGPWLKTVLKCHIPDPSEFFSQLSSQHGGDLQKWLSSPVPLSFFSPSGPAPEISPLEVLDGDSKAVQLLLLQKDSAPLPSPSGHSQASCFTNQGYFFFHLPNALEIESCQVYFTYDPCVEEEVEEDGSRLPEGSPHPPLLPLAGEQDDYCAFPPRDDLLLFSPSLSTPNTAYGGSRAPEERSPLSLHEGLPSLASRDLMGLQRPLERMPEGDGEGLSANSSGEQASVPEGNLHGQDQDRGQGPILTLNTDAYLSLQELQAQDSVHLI
T1 sequence 2: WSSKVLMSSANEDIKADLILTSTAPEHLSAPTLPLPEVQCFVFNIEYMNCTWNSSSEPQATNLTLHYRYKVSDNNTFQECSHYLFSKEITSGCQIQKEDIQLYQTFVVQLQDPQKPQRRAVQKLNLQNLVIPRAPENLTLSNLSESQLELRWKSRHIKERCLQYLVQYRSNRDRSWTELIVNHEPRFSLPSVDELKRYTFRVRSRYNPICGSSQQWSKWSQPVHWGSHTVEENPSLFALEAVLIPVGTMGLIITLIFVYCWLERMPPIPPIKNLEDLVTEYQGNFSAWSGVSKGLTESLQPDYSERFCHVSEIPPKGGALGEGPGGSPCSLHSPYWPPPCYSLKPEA

T2: human IL-2 receptor beta (IL-2Rβ, CD122), purified soluble (human, UniProt P14784 27-240)
T2 construct: also called hILR2β (CD122); human IL-2Rβ
T2 sequence (looked up): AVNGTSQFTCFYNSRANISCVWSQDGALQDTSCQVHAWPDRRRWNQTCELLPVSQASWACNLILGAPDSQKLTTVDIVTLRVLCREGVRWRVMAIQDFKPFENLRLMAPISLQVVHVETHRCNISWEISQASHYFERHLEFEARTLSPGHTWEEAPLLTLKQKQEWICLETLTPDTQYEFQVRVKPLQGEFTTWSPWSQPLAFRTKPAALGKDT

T3: human high-affinity IL-2 receptor complex, IL-2 CD25/CD122/CD132 (α/β/γ), on cells (human, UniProt P01589 22-272; P14784 27-551; P31785 23-369)
T3 sequence (looked up) 1: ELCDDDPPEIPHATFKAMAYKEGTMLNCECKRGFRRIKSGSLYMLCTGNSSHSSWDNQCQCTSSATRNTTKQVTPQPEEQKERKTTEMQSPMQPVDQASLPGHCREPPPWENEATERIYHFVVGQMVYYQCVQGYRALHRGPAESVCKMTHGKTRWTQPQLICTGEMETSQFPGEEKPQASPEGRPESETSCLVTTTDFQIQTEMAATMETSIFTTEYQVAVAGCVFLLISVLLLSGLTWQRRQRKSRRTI
T3 sequence (looked up) 2: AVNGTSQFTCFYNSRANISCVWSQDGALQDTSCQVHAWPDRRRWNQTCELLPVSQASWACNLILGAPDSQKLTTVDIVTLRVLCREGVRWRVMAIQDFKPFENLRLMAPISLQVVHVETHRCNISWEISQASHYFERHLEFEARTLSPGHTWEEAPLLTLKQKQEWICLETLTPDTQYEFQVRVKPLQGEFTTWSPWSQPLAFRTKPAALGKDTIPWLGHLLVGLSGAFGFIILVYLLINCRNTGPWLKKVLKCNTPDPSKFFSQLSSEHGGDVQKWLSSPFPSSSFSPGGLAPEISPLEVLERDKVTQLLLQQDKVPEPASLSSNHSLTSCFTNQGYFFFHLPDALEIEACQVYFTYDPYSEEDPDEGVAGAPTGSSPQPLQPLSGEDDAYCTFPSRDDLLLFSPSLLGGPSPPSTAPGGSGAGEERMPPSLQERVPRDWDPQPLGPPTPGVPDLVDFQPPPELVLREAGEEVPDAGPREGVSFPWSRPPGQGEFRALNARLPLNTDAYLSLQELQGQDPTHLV
T3 sequence (looked up) 3: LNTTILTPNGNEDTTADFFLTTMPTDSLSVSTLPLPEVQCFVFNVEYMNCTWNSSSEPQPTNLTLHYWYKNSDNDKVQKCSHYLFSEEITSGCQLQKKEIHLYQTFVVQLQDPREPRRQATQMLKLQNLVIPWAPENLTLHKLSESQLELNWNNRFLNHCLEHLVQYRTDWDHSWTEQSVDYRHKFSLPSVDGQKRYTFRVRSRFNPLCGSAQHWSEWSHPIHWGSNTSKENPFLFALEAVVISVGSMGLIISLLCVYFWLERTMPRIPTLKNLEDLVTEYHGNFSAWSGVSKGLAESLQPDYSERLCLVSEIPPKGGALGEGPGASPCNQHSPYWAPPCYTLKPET

T4: human intermediate-affinity IL-2 receptor complex, IL-2 CD122/CD132 (β/γ), on cells (human, UniProt P14784 27-551; P31785 23-369)
T4 sequence (looked up) 1: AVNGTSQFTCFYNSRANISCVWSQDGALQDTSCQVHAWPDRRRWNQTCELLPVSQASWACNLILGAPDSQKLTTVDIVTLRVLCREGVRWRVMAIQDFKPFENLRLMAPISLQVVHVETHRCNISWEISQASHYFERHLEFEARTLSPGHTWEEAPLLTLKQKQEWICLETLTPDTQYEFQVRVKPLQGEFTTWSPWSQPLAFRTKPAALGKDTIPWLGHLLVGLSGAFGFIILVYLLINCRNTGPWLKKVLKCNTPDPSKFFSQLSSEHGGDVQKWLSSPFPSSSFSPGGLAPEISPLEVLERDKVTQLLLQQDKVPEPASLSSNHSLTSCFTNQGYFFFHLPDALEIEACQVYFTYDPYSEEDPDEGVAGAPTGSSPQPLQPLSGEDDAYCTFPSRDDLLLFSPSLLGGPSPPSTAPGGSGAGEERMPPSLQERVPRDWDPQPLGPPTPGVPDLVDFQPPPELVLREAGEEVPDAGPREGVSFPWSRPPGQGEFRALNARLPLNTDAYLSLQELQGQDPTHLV
T4 sequence (looked up) 2: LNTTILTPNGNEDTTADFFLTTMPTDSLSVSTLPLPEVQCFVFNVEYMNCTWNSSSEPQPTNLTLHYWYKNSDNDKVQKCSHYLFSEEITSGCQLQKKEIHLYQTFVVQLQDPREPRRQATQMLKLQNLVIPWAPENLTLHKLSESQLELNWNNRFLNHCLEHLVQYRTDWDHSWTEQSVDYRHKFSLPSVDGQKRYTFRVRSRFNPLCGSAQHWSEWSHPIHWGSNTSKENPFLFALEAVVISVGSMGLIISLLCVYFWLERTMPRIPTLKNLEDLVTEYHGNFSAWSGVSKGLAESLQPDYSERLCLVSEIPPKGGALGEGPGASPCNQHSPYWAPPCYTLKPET


Columns and labels:
[1] = target: T1, mouse intermediate-affinity IL-2R (IL-2Rβ + IL-2Rγ) on murine splenocytes (CD8+ T cells and NK cells) (mouse)
[2] = target: T2, human IL-2 receptor beta (IL-2Rβ, …); experiment: SPR (Biacore 8K, 25 C), CD122 amine-coupled on CM5 chip, Fc-IL2 variant as analyte, 1:1 Langmuir fit
[3] = target: T3, human high-affinity IL-2 receptor …; experiment: cell-based or functional assay
[4] = target: T4, human intermediate-affinity IL-2 …; experiment: cell-based or functional assay
[5] = target: T4, human intermediate-affinity IL-2 …; experiment: cell-based or functional assay; remark: listed apart in the source
[6] = target: T3, human high-affinity IL-2 receptor …; experiment: cell-based or functional assay; remark: listed apart in the source
[7] = target: T4, human intermediate-affinity IL-2 …; experiment: cell-based or functional assay; remark: listed apart in the source
[8] = target: T3, human high-affinity IL-2 receptor …; experiment: cell-based or functional assay; remark: listed apart in the source
[9] = target: T4, human intermediate-affinity IL-2 …; experiment: cell-based or functional assay; remark: listed apart in the source

Molecule	EC50 (read off the curve), pSTAT5 MFI in Treg cells of hPBMC [3] [nM]	EC50 (read off the curve), pSTAT5 MFI in NK cells of hPBMC [4] [nM]	EC50 (read off the curve), pSTAT5 MFI in NK cells of hPBMC [5] [nM]	EC50, pSTAT5 induction in iTreg cells (ELISA) [6] [nM]	EC50, pSTAT5 induction in HH T cells (ELISA) [7] [nM]	also measured
human IL-2 glycovariant 2 hIL-2gv2 (K43N, Y45T, L72N, Q74T), secreted by virus-infected HeLa cells (from UniProt P60568 21-153) (ligand)						EC50 (read off the curve), pSTAT5 MFI, murine splenocyte NK cells [1]: 20 ng/mL
human IL-2 glycovariant hIL-2gv1 (R38N, L40T, K43N, Y45T), secreted by virus-infected HeLa cells (from UniProt P60568 21-153) (ligand)						EC50 (read off the curve), pSTAT5 MFI, murine splenocyte NK cells [1]: 20 ng/mL
Fc-IL2-R38N:L40T-K43N:Y45T (Fc fusion) GGGGSGGGGSAPTSSSTKKTQLQLEHLLLDLQMILNGINNYKNPKLTNMTTFNFTMPKKATELKHLQCLEEELKPLEEVLNLAQSKNFHLRPRDLISNINVIVLELKGSETTFMCEYADETATIVEFLNRWITFCQSIISTLT	~20	~8	~8	14.1	218	Kd [2]: 3.54 µM; koff [2]: 0.292 s⁻¹; kon [2]: 82600 M⁻¹ s⁻¹
Fc-IL2-K43N:Y45T-E62N:K64T (Fc fusion) GGGGSGGGGSAPTSSSTKKTQLQLEHLLLDLQMILNGINNYKNPKLTRMLTFNFTMPKKATELKHLQCLEENLTPLEEVLNLAQSKNFHLRPRDLISNINVIVLELKGSETTFMCEYADETATIVEFLNRWITFCQSIISTLT		~6		3.07	66.2	
Fc-IL2-R38N:L40T-L72N:Q74T (Fc fusion) GGGGSGGGGSAPTSSSTKKTQLQLEHLLLDLQMILNGINNYKNPKLTNMTTFKFYMPKKATELKHLQCLEEELKPLEEVLNNATSKNFHLRPRDLISNINVIVLELKGSETTFMCEYADETATIVEFLNRWITFCQSIISTLT	~20		~6			
Fc-IL2-T41N:K43T-E62N:K64T (Fc fusion) GGGGSGGGGSAPTSSSTKKTQLQLEHLLLDLQMILNGINNYKNPKLTRMLNFTFYMPKKATELKHLQCLEENLTPLEEVLNLAQSKNFHLRPRDLISNINVIVLELKGSETTFMCEYADETATIVEFLNRWITFCQSIISTLT						EC50 (read off the curve), pSTAT5 MFI in Treg cells of hPBMC [8]: ~20 nM; EC50 (read off the curve), pSTAT5 MFI in NK cells of hPBMC [9]: ~6 nM
Fc-IL2-T41N:K43T-L72N:Q74T (Fc fusion) GGGGSGGGGSAPTSSSTKKTQLQLEHLLLDLQMILNGINNYKNPKLTRMLNFTFYMPKKATELKHLQCLEEELKPLEEVLNNATSKNFHLRPRDLISNINVIVLELKGSETTFMCEYADETATIVEFLNRWITFCQSIISTLT						EC50 (read off the curve), pSTAT5 MFI in Treg cells of hPBMC [8]: ~20 nM; EC50 (read off the curve), pSTAT5 MFI in NK cells of hPBMC [9]: ~6 nM
Fc-IL2-K43N:Y45T-L72N:Q74T (Fc fusion) GGGGSGGGGSAPTSSSTKKTQLQLEHLLLDLQMILNGINNYKNPKLTRMLTFNFTMPKKATELKHLQCLEEELKPLEEVLNNATSKNFHLRPRDLISNINVIVLELKGSETTFMCEYADETATIVEFLNRWITFCQSIISTLT		~6		4.49	65.2	Kd [2]: 2.62 µM; koff [2]: 0.235 s⁻¹; kon [2]: 89900 M⁻¹ s⁻¹
Fc-IL2-R38N:L40T-E62N:K64T (Fc fusion) GGGGSGGGGSAPTSSSTKKTQLQLEHLLLDLQMILNGINNYKNPKLTNMTTFKFYMPKKATELKHLQCLEENLTPLEEVLNLAQSKNFHLRPRDLISNINVIVLELKGSETTFMCEYADETATIVEFLNRWITFCQSIISTLT	~20		~6			

Source: patent publication US20220033784A1 (priority 2020, published 2022)
